# Results: US20140348865A1, “[…] ON AN HIV-1 V1V2 SITE-OF-VULNERABILITY” (The United States of America, as represented by the …, priority 2011, published 2014)
# How the values were obtained:
# [1] = target: Env of HIV-1 strain 7165.18 (pseudovirus) (HIV-1)
# [2] = target: Env of HIV-1 strain BG 1168 (pseudovirus) (HIV-1)
# [3] = target: Env of HIV-1 strain CNE4 (pseudovirus) (HIV-1)
# [4] = target: Env of HIV-1 strain JRFL (pseudovirus) (HIV-1)
# [5] = target: Env of HIV-1 strain RHPA (pseudovirus) (HIV-1)
# [6] = target: Env of HIV-1 strain BG 1168 (pseudovirus) (HIV-1); remark: listed apart in the source
# [7] = target: Env of HIV-1 strain T251-18 (pseudovirus) (HIV-1)
# [8] = target: Env of HIV-1 strain 6405 (pseudovirus) (HIV-1)
# [9] = target: Env of HIV-1 strain A03349M1 (pseudovirus) (HIV-1)
# [10] = target: Env of HIV-1 strain X2088 (pseudovirus) (HIV-1)
# [11] = target: 1FD6 CAP45 scaffold N143D/N147D/N192D; experiment: ELISA on His-captured supernatant
# monomeric gp120 = experiment: ELISA or SPR against neutralization
# [12] = target: 1FD6 CAP45 scaffold N143D; experiment: ELISA, supernatant on His grab plates
# [13] = target: 1FD6 CAP45 scaffold N147D; experiment: ELISA, supernatant on His grab plates
# [14] = target: 1FD6 CAP45 scaffold N156D; experiment: ELISA, supernatant on His grab plates
# [15] = target: 1FD6 CAP45 scaffold N160Q; experiment: ELISA, supernatant on His grab plates
# [16] = target: 1FD6 CAP45 scaffold N192D; experiment: ELISA, supernatant on His grab plates
# 1FD6-CAP45 V1V2 scaffold = experiment: ELISA, supernatant on His grab plates
substance,measurement,setting,value
monoclonal antibody PG16,neutralization IC50,BL01.DG,> 50 µg/mL
same,neutralization IC50,BX08_16,0.062 µg/mL
same,neutralization IC50,BaL.26,0.136 µg/mL
same,neutralization IC50,Bal.01,8 µg/mL
same,neutralization IC50,CNE10,9.17 µg/mL
same,neutralization IC50,CNE12,> 50 µg/mL
same,neutralization IC50,CNE14,> 50 µg/mL
same,neutralization IC50,DJ263.8,0.048 µg/mL
same,neutralization IC50,[1],> 50 µg/mL
same,neutralization IC50,[2],> 50 µg/mL
same,neutralization IC50,[3],> 50 µg/mL
same,neutralization IC50,[4],> 50 µg/mL
same,neutralization IC50,[5],1.32 µg/mL
same,neutralization IC50,HO86.8,0.001 µg/mL
same,neutralization IC50,HT593.1,0.153 µg/mL
same,neutralization IC50,HXB2.DG,> 50 µg/mL
same,neutralization IC50,MN.3,> 50 µg/mL
same,neutralization IC50,PVO.04,19.8 µg/mL
same,neutralization IC50,QH0692.42 (pseudovirus),> 50 µg/mL
same,neutralization IC50,SF162.LS,> 50 µg/mL
same,neutralization IC50,T253-11,4.44 µg/mL
same,neutralization IC50,T255-34,0.005 µg/mL
same,neutralization IC50,T257-31,0.003 µg/mL
same,neutralization IC50,T266-60,> 50 µg/mL
same,neutralization IC50,T278-50,1.13 µg/mL
same,neutralization IC50,T33-7,< 0.023 µg/mL
same,neutralization IC50,THRO.18,0.975 µg/mL
same,neutralization IC50,TRJO.58,0.393 µg/mL
same,neutralization IC50,YU2.DG,0.041 µg/mL
same,neutralization IC80,89.6.DG (HIV-1),> 50 µg/mL
same,neutralization IC80,CH038.12 (HIV-1),> 50 µg/mL
same,neutralization IC80,[6],> 50 µg/mL
same,neutralization IC80,[7],> 50 µg/mL
same,neutralization IC80,HT593.1 (HIV-1),13.7 µg/mL
same,neutralization IC80,T250-4 (HIV-1),0.001 µg/mL
same,neutralization IC80,T253-11 (HIV-1),> 50 µg/mL
same,neutralization IC80,YU2.DG (HIV-1),> 50 µg/mL
same,neutralization IC80,231965.c1 (HIV-1),> 50 µg/mL
same,neutralization IC80,3016.v5.c45 (HIV-1),> 50 µg/mL
same,neutralization IC80,3326_V4_C3 (HIV-1),0.221 µg/mL
same,neutralization IC80,3337_V2_C6 (HIV-1),> 50 µg/mL
same,neutralization IC80,3817.v2.c59 (HIV-1),0.051 µg/mL
same,neutralization IC80,57128.vrc15 (HIV-1),> 50 µg/mL
same,neutralization IC80,[8],> 50 µg/mL
same,neutralization IC80,[9],> 50 µg/mL
same,neutralization IC80,[10],> 50 µg/mL
same,neutralization IC80,NKU3006.ec1 (HIV-1),> 50 µg/mL
same,neutralization IC80,SIVmac251.30.SG3 (SIV),> 50 µg/mL
same,neutralization IC80,SVA.MLV,> 50 µg/mL
same,neutralization IC80,UG021.16 (HIV-1),> 50 µg/mL
same,neutralization IC80,UG024.2 (HIV-1),> 50 µg/mL
same,neutralization IC80,ZM233.6 (HIV-1),< 0.023 µg/mL
same,neutralization IC80,ZM249.1 (HIV-1),9.23 µg/mL
same,neutralization IC80,ZM53.12 (HIV-1),0.103 µg/mL
same,neutralization IC80,ZM55.28a (HIV-1),> 50 µg/mL
same,EC50,[11],15.1 µg/mL
same,fold weaker affinity for monomeric gp120 than for the viral spike,monomeric gp120,> 100 fold
same,EC50,[12],3.3 µg/mL
same,EC50,[13],0.7 µg/mL
same,EC50,[14],> 50 µg/mL
same,EC50,[15],> 50 µg/mL
same,EC50,[16],27 µg/mL
same,EC50,1FD6-CAP45 V1V2 scaffold,9.1 µg/mL
monoclonal antibody PG9,neutralization IC50,BL01.DG,> 50 µg/mL
same,neutralization IC50,BX08_16,0.024 µg/mL
same,neutralization IC50,BaL.26,0.034 µg/mL
same,neutralization IC50,Bal.01,0.052 µg/mL
same,neutralization IC50,CNE10,0.243 µg/mL
same,neutralization IC50,CNE12,> 50 µg/mL
same,neutralization IC50,CNE14,> 50 µg/mL
same,neutralization IC50,DJ263.8,0.1 µg/mL
same,neutralization IC50,[1],> 50 µg/mL
same,neutralization IC50,[2],> 50 µg/mL
same,neutralization IC50,[3],> 50 µg/mL
same,neutralization IC50,[4],> 50 µg/mL
same,neutralization IC50,[5],> 50 µg/mL
same,neutralization IC50,HO86.8,0.014 µg/mL
same,neutralization IC50,HT593.1,0.271 µg/mL
same,neutralization IC50,HXB2.DG,0.553 µg/mL
same,neutralization IC50,MN.3,> 50 µg/mL
same,neutralization IC50,PVO.04,6.24 µg/mL
same,neutralization IC50,QH0692.42 (pseudovirus),> 50 µg/mL
same,neutralization IC50,SF162.LS,> 50 µg/mL
same,neutralization IC50,T253-11,0.127 µg/mL
same,neutralization IC50,T255-34,0.015 µg/mL
same,neutralization IC50,T257-31,0.02 µg/mL
same,neutralization IC50,T266-60,24 µg/mL
same,neutralization IC50,T278-50,0.913 µg/mL
same,neutralization IC50,T33-7,< 0.023 µg/mL
same,neutralization IC50,THRO.18,15 µg/mL
same,neutralization IC50,TRJO.58,0.246 µg/mL
same,neutralization IC50,YU2.DG,3.69 µg/mL
same,neutralization IC80,89.6.DG (HIV-1),> 50 µg/mL
same,neutralization IC80,CH038.12 (HIV-1),> 50 µg/mL
same,neutralization IC80,[6],> 50 µg/mL
same,neutralization IC80,[7],> 50 µg/mL
same,neutralization IC80,HT593.1 (HIV-1),5.41 µg/mL
same,neutralization IC80,T250-4 (HIV-1),0.001 µg/mL
same,neutralization IC80,T253-11 (HIV-1),1.72 µg/mL
same,neutralization IC80,YU2.DG (HIV-1),> 50 µg/mL
same,neutralization IC80,231965.c1 (HIV-1),> 50 µg/mL
same,neutralization IC80,3016.v5.c45 (HIV-1),> 50 µg/mL
same,neutralization IC80,3326_V4_C3 (HIV-1),0.111 µg/mL
same,neutralization IC80,3337_V2_C6 (HIV-1),> 50 µg/mL
same,neutralization IC80,3817.v2.c59 (HIV-1),0.028 µg/mL
same,neutralization IC80,57128.vrc15 (HIV-1),0.665 µg/mL
same,neutralization IC80,[8],> 50 µg/mL
same,neutralization IC80,[9],> 50 µg/mL
same,neutralization IC80,[10],> 50 µg/mL
same,neutralization IC80,NKU3006.ec1 (HIV-1),> 50 µg/mL
same,neutralization IC80,SIVmac251.30.SG3 (SIV),> 50 µg/mL
same,neutralization IC80,SVA.MLV,> 50 µg/mL
same,neutralization IC80,UG021.16 (HIV-1),> 50 µg/mL
same,neutralization IC80,UG024.2 (HIV-1),> 50 µg/mL
same,neutralization IC80,ZM233.6 (HIV-1),< 0.023 µg/mL
same,neutralization IC80,ZM249.1 (HIV-1),0.408 µg/mL
same,neutralization IC80,ZM53.12 (HIV-1),0.17 µg/mL
same,neutralization IC80,ZM55.28a (HIV-1),11.5 µg/mL
same,EC50,[11],0.1 µg/mL
same,fold weaker affinity for monomeric gp120 than for the viral spike,monomeric gp120,> 10 fold
same,EC50,[12],0.1 µg/mL
same,EC50,[13],0.1 µg/mL
same,EC50,[14],4.9 µg/mL
same,EC50,[15],> 50 µg/mL
same,EC50,[16],0.2 µg/mL
same,EC50,1FD6-CAP45 V1V2 scaffold,0.2 µg/mL
